Values quoted from earlier work as cited in paper PMC6684861 (Traffic (Copenhagen, Denmark), 2018).

System: mouse embryonic fibroblasts
Settings: ref unpublished observations

B1: DNA polymerase λ (protein, UniProt Q9UGP5 1-575, looked up)
DNA polymerase lambda: MDPRGILKAFPKRQKIHADASSKVLAKIPRREEGEEAEEWLSSLRAHVVRTGIGRARAELFEKQIVQHGGQLCPAQGPGVTHIVVDEGMDYERALRLLRLPQLPPGAQLVKSAWLSLCLQERRLVDVAGFSIFIPSRYLDHPQPSKAEQDASIPPGTHEALLQTALSPPPPPTRPVSPPQKAKEAPNTQAQPISDDEASDGEETQVSAADLEALISGHYPTSLEGDCEPSPAPAVLDKWVCAQPSSQKATNHNLHITEKLEVLAKAYSVQGDKWRALGYAKAINALKSFHKPVTSYQEACSIPGIGKRMAEKIIEILESGHLRKLDHISESVPVLELFSNIWGAGTKTAQMWYQQGFRSLEDIRSQASLTTQQAIGLKHYSDFLERMPREEATEIEQTVQKAAQAFNSGLLCVACGSYRRGKATCGDVDVLITHPDGRSHRGIFSRLLDSLRQEGFLTDDLVSQEENGQQQKYLGVCRLPGPGRRHRRLDIIVVPYSEFACALLYFTGSAHFNRSMRALAKTKGMSLSEHALSTAVVRNTHGCKVGPGRVLPTPTEKDVFRLLGLPYREPAERDW
**Q.** Which “nuclear/cytosolic ratio in mouse embryonic fibroblasts” value does the source give for B1 here?
**A.** Its value is 8.
